This passage reports Kd results from paper PMC10959955 (2024).

Changes are numbered by the printed parent chain. In names and notes the source's numbering stands.

In general, Kd refers to a measure of binding affinity in units of concentration. Lower therefore signals a tighter complex.

The target in the assay is nucleosome reconstituted with human core histones and Widom 601 DNA (human, UniProt P04908 2-130; P06899 1-126; P68431 1-136; P62805 2-103). Description: MST.

B1: His6-tagged RING domain heterodimer, GA mutant (GST-RING^A T948G^A-T952A^A with His6-Twin-Strep-Rad6A-RING^B) (complex)
chain 1: PDNVPKCDEILMEEIKDYKARLTCPCCNMRKKDAVLTKCFHVFCFECVKGRYDARQRKCPKCNAAFGANDFHRIYIG
chain 2: MSTPARRRLMRDFKRLQEDPPAGVSGAPSENNIMVWNAVIFGPEGTPFEDGTFKLTIEFTEEYPNKPPTVRFVSKMFHPNVYADGSICLDILQNRWSPTYDVSSILTSIQSLLDEPNPNSPANSQAAQLYQENKREYEKRVSAIVEQSWRDCVEVYADADEILQEEIKEYKARLTCPCCNTRKKDAVLTKCFHVFCFECVRGRYEARQRKCPKCNAAFGAHDFHRIYIS
modifications: RED-Tris-NTA label on the His6 tag
B1 came in with a Kd of 11.8 nM.

B2: His6-tagged RING domain heterodimer, TT mutant (GST-RING^A with His6-Twin-Strep-Rad6A-RING^B G974T^B-A978T^B) (complex)
chain 1: B1 chain 1 with G50T, A54T
chain 2: B1 chain 2 with G202T, A206T
modifications: RED-Tris-NTA label on the His6 tag
B2: binding was characterised by a dissociation constant (Kd) of 7.3 nM.

B3: His6-tagged RING domain heterodimer, wild type (GST-RING^A with His6-Twin-Strep-Rad6A-RING^B) (complex)
chain 1: B1 chain 1 with G50T, A54T
chain 2: B1 chain 2
modifications: RED-Tris-NTA label on the His6 tag
The molecule B3 displayed a Kd of 7.8 nM.

B4: His6-tagged RING domain heterodimer, GA + TT mutant (GST-RING^A T948G^A-T952A^A with His6-Twin-Strep-Rad6A-RING^B G974T^B-A978T^B) (complex)
chain 1: B1 chain 1
chain 2: B1 chain 2 with G202T, A206T
modifications: RED-Tris-NTA label on the His6 tag
B4 displayed a Kd of 34 nM.
